Data on 37 molecules can be found in patent US20070078102A1, “NF-kB oligonucleotide decoy molecules” (published 2007).

The target in series [1] is NF-kB p65/p50 heterodimer (RelA/NFKB1) (Homo sapiens, UniProt Q04206;P19838 Q04206:1-551,P19838:1-433). The series can be described thus: EMSA; competition vs 32P 113/114 probe. The note with it: protein: extract; tags: none; nuclear extract of LPS-stimulated THP-1 cells. The source says: (§1) The EMSA assay was employed to characterize oligonucleotide decoys for the NF-κB transcription factor. […] Using the above modified oligonucleotides to compete for binding for the above-mentioned NF-κB family members, it was possible to compare the binding affinity of these oligonucleotides against the high affinity radiolabeled probe and each other. This assay has also enabled the design of a decoy which selectively binds particular members of the NF-κB family. By using increasing concentrations of various oligonucleotides, it was observed that, by deleting or changing targeted residues in the binding site, it was possible to specifically decrease the binding of the decoy molecule to p50/p50 homodimers, while retaining the affinity for p65/p50 and cRel/p50 heterodimers.
(§2) The NF-κB gel shift assays (EMSA) were performed as follows. A double-stranded oligonucleotide containing a consensus NF-κB binding site (5′ […] 3′) (SEQ ID NO: 78) was end-labeled with γ³²P-ATP using T4 Polynucleotide Kinase (Promega). Alternatively, a double-stranded ODN containing a consensus NF-κB binding site from the IL-6 promoter (5′ […] 3′) (SEQ ID NO: 94) was end-labeled with γ³²P-ATP using T4 Polynucleotide Kinase (Promega). One microgram of a nuclear extract prepared from LPS stimulated THP-1 cells (human monocyte cell line) was incubated with 35 fmol of radiolabeled probe in the presence or absence of competing unlabeled NF-κB double-stranded oligonucleotides (dsODN) or scrambled dsODN. The incubations were carried out at room temperature for 30 minutes in a 20 μl reaction volume composed of 10 mM Tris-HCl pH 8, 100 mM KCL, 5 mM MgCl2, 2 mM DTT, 10% Glycerol, 0.1% NP-40, 0.025% BSA and 1 μg Poly-dIdC. The reactions were loaded onto a 6% polyacrylamide gel, subjected to electrophoresis and dried. The dried gels were imaged and quantitated using a Typhoon 8600 PhosphorImager (Amersham) and ImageQuant software.
A general note: Mobility shift assays separate free from complexed probe on a gel.

For series [2], the target named is NF-kB p50/p50 homodimer (NFKB1) (Homo sapiens, UniProt P19838 P19838:1-433). Put plainly: EMSA; competition vs 32P 113/114 probe. The settings on record: protein: extract; tags: none; nuclear extract of LPS-stimulated THP-1 cells; chain copies: 2 (stated homodimer).
From the text: as §1, §2

NF-kB p50/p50 homodimer (NFKB1), sequence (P19838 1-433, one chain of several): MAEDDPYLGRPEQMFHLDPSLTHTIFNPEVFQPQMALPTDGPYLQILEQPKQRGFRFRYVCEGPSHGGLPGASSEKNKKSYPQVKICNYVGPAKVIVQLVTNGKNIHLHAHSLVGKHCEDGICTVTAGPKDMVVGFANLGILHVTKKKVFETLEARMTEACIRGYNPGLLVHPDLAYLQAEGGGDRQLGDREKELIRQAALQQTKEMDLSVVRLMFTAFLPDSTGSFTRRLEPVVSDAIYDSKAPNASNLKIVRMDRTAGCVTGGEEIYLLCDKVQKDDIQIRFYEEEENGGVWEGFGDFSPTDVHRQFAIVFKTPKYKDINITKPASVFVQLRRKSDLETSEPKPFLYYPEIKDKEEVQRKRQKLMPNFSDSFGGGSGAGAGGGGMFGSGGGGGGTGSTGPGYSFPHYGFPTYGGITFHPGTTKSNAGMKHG
NF-kB p65/p50 heterodimer (RelA/NFKB1), sequence (Q04206 whole entry, chain 1 of 2): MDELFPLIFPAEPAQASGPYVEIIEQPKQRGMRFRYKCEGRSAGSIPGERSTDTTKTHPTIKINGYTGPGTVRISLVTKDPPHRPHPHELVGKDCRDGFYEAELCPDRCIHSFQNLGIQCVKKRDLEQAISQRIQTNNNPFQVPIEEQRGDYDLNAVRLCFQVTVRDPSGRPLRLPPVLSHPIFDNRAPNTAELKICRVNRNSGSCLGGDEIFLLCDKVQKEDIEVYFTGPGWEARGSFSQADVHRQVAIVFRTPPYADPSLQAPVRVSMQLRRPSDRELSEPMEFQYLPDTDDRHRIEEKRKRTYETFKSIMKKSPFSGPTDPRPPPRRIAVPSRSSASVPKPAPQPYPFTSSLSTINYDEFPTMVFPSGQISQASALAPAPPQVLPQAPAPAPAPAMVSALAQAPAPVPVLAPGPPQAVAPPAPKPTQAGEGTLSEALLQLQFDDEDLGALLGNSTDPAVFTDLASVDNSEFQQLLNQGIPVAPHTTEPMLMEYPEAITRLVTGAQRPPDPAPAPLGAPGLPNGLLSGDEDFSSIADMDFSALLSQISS
NF-kB p65/p50 heterodimer (RelA/NFKB1), sequence (P19838 1-433, chain 2 of 2): as the sequence (P19838 1-433, one chain of several) above

B1: decoy 281 E-Z EVEN (dsDNA)
DNA 1: TTGAGGACTTTCCAGGC
DNA 2: GCCTGGAAAGTCCTCAA
As for B1, in series [1], the IC50 was found to be 87 fold molar excess.

B2: decoy 227 H-V (dsDNA)
DNA 1: TCGGATTTCCTC
DNA 2: GAGGAAATCCGA
Take B2: the IC50 in series [1] was found to be 74 fold molar excess.

B3: 153/154 H9/H9 (dsDNA)
DNA 1: AGTTGAGGACTTTCCAGGC
DNA 2: GCCTGGAAAGTCCTCAACT
modifications: PS at the 9 3'-most linkages of each strand
With B3, the IC50 in series [1] came to 17 fold molar excess.

B4: 153/154 H10/H10 (dsDNA)
DNA 1: AGTTGAGGACTTTCCAGGC
DNA 2: GCCTGGAAAGTCCTCAACT
modifications: PS at the 10 3'-most linkages of each strand
In series [1], B4 gave an IC50 of 21 fold molar excess.

B5: decoy 279 E-Z A->C EVEN (dsDNA)
DNA 1: TTGCGGACTTTCCAGGC
DNA 2: GCCTGGAAAGTCCGCAA
Take B5: the IC50 came to 52 fold molar excess in series [2] and 48 fold molar excess in series [1].

B6: 153/154 PO/H11 (dsDNA)
DNA 1: AGTTGAGGACTTTCCAGGC
DNA 2: GCCTGGAAAGTCCTCAACT
modifications: strand 153 PO; strand 154 PS at the 11 3'-most linkages
Regarding B6, the IC50 in series [2] worked out at 40 fold molar excess; in series [1] it was 7.5 fold molar excess.

B7: 153/154 H6/H6 (dsDNA)
DNA 1: AGTTGAGGACTTTCCAGGC
DNA 2: GCCTGGAAAGTCCTCAACT
modifications: PS at the 6 3'-most linkages of each strand
For the molecule B7, the IC50 in series [1] amounted to 40 fold molar excess.

B8: decoy 309 M-T (dsDNA)
DNA 1: CCTTGAAGGGATTTCCCTCC
DNA 2: GGAGGGAAATCCCTTCAAGG
For B8, the IC50 in series [2] came to 50 fold molar excess; in series [1], 45 fold molar excess.

B9: 153/154 H11/PO (dsDNA)
DNA 1: AGTTGAGGACTTTCCAGGC
DNA 2: GCCTGGAAAGTCCTCAACT
modifications: strand 153 PS at the 11 3'-most linkages; strand 154 PO
Regarding B9, the IC50 in series [1] amounted to 7.5 fold molar excess.

B10: decoy 129 D-V (dsDNA)
DNA 1: TCGGGATTTCCTC
DNA 2: GAGGAAATCCCGA
As for B10, the IC50 in series [2] and in series [1] was 37.5 fold molar excess each time.

B11: 153/154 H7/H7 (dsDNA)
DNA 1: AGTTGAGGACTTTCCAGGC
DNA 2: GCCTGGAAAGTCCTCAACT
modifications: PS at the 7 3'-most linkages of each strand
With B11, the IC50 in series [1] amounted to 39 fold molar excess.

B12: decoy 295 (dsDNA)
DNA 1: TGAGGACTTTCCAGGCTC
DNA 2: GAGCCTGGAAAGTCCTCA
In the case of B12, the IC50 in series [1] was determined as 92 fold molar excess.

B13: 153/154 H3/H3 (dsDNA)
DNA 1: AGTTGAGGACTTTCCAGGC
DNA 2: GCCTGGAAAGTCCTCAACT
modifications: PS at the 3 3'-most linkages of each strand
In turn, B13 registered an IC50 in series [1] of 45 fold molar excess.

B14: decoy 235 L-V (dsDNA)
DNA 1: TCGGACTTTCCCTC
DNA 2: GAGGGAAAGTCCGA
For the molecule B14, the IC50 came out at 62.5 fold molar excess in series [2] and 37 fold molar excess in series [1].

B15: 153/154 H5/H5 (dsDNA)
DNA 1: AGTTGAGGACTTTCCAGGC
DNA 2: GCCTGGAAAGTCCTCAACT
modifications: PS at the 5 3'-most linkages of each strand
B15 had an IC50 in series [1] of 50 fold molar excess.

B16: 153/154 H5/PO (dsDNA)
DNA 1: AGTTGAGGACTTTCCAGGC
DNA 2: GCCTGGAAAGTCCTCAACT
modifications: strand 153 PS at the 5 3'-most linkages; strand 154 PO
As for B16, in series [1], the IC50 was 59 fold molar excess.

B17: decoy 263 H-Z (dsDNA)
DNA 1: AGTTGAGGATTTCCAGGC
DNA 2: GCCTGGAAATCCTCAACT
Take B17: the IC50 amounted to 82 fold molar excess in series [2] and 73 fold molar excess in series [1].

B18: 153/154 H8/H8 (dsDNA)
DNA 1: AGTTGAGGACTTTCCAGGC
DNA 2: GCCTGGAAAGTCCTCAACT
modifications: PS at the 8 3'-most linkages of each strand
In the case of B18, in series [1], the IC50 came out at 29 fold molar excess.

B19: 153/154 PO/H5 (dsDNA)
DNA 1: AGTTGAGGACTTTCCAGGC
DNA 2: GCCTGGAAAGTCCTCAACT
modifications: strand 153 PO; strand 154 PS at the 5 3'-most linkages
In turn, B19 came in with an IC50 in series [1] of 65 fold molar excess.

B20: 153/154 H11/H11 (dsDNA)
DNA 1: AGTTGAGGACTTTCCAGGC
DNA 2: GCCTGGAAAGTCCTCAACT
modifications: PS at the 11 3'-most linkages of each strand
As for B20, the values for the IC50 in series [2] and in series [1] were 27 fold molar excess and 24 fold molar excess, respectively.

B21: 153/154 H8/H10 (dsDNA)
DNA 1: AGTTGAGGACTTTCCAGGC
DNA 2: GCCTGGAAAGTCCTCAACT
modifications: PS at the 8 (153) and 10 (154) 3'-most linkages
B21 returned an IC50 in series [1] of 33 fold molar excess.

B22: decoy 289 (dsDNA)
DNA 1: TGAGGACTTTCCAGGC
DNA 2: GCCTGGAAAGTCCTCA
B22 displayed an IC50 in series [1] of 93 fold molar excess.

B23: 153/154 PS/PS (dsDNA)
DNA 1: AGTTGAGGACTTTCCAGGC
DNA 2: GCCTGGAAAGTCCTCAACT
modifications: full PS, both strands
With B23, the IC50 in series [1] was determined as 5 fold molar excess.

B24: decoy 173 E-Z-4 (dsDNA)
DNA 1: TTGAGGACTTTCCAG
DNA 2: CTGGAAAGTCCTCAA
Turning to B24, in series [1], the IC50 is 55 fold molar excess.

B25: 153/154 H10/H8 (dsDNA)
DNA 1: AGTTGAGGACTTTCCAGGC
DNA 2: GCCTGGAAAGTCCTCAACT
modifications: PS at the 10 (153) and 8 (154) 3'-most linkages
As for B25, the IC50 in series [1] was 9 fold molar excess.

B26: 153/154 PO/PS (dsDNA)
DNA 1: AGTTGAGGACTTTCCAGGC
DNA 2: GCCTGGAAAGTCCTCAACT
modifications: strand 153 PO; strand 154 full PS
Take B26: the IC50 in series [2] and in series [1] was 5 fold molar excess throughout.

B27: decoy 177 E-W (dsDNA)
DNA 1: CTCGGACTTTCCTGT
DNA 2: ACAGGAAAGTCCGAG
In series [1], B27 yielded an IC50 of 57.5 fold molar excess.

B28: 153/154 PO (dsDNA)
DNA 1: AGTTGAGGACTTTCCAGGC
DNA 2: GCCTGGAAAGTCCTCAACT
modifications: full phosphodiester, both strands
For the molecule B28, the figures for the IC50 in series [2] and in series [1] were 92 fold molar excess and 58 fold molar excess, respectively.

B29: decoy 141 A-Z-2 (dsDNA)
DNA 1: GTTGAGGGACTTTCCAGG
DNA 2: CCTGGAAAGTCCCTCAAC
Turning to B29, the IC50 in series [2] stood at 10 fold molar excess; in series [1] it was 7.5 fold molar excess.

B30: decoy 197 C-W (dsDNA)
DNA 1: CTCGGGGACTTTCCCTGT
DNA 2: ACAGGGAAAGTCCCCGAG
Take B30: the values for the IC50 in series [2] and in series [1] were 17.5 fold molar excess and 26 fold molar excess, respectively.

B31: decoy 123 A-W (dsDNA)
DNA 1: CTCGGGACTTTCCTGT
DNA 2: ACAGGAAAGTCCCGAG
For the molecule B31, the figures for the IC50 in series [2] and in series [1] were 10 fold molar excess and 8 fold molar excess, respectively.

B32: decoy 151 D-Z (dsDNA)
DNA 1: AGTTGAGGGATTTCCAGGC
DNA 2: GCCTGGAAATCCCTCAACT
For B32, the IC50 in series [2] was 69 fold molar excess; in series [1], 36 fold molar excess.

B33: decoy 265 I-Z (dsDNA)
DNA 1: AGTTGAGGATTTCCCAGGC
DNA 2: GCCTGGGAAATCCTCAACT
As to B33, the results for the IC50 in series [2] and in series [1] were 84 fold molar excess and 54 fold molar excess, respectively.

B34: 153/154 H4/H4 (dsDNA)
DNA 1: AGTTGAGGACTTTCCAGGC
DNA 2: GCCTGGAAAGTCCTCAACT
modifications: PS at the 4 3'-most linkages of each strand
In turn, B34 showed an IC50 in series [1] of 85 fold molar excess.

B35: decoy 117 E-U (dsDNA)
DNA 1: ATGGACTTTCCGT
DNA 2: ACGGAAAGTCCAT
The molecule B35 displayed an IC50 in series [1] of 72.5 fold molar excess.

B36: 153/154 PS/PO (dsDNA)
DNA 1: AGTTGAGGACTTTCCAGGC
DNA 2: GCCTGGAAAGTCCTCAACT
modifications: strand 153 full PS; strand 154 PO
Turning to B36, the IC50 in series [2] and in series [1] was 5 fold molar excess throughout.

B37: decoy 153/154 E-Z (dsDNA)
DNA 1: AGTTGAGGACTTTCCAGGC
DNA 2: GCCTGGAAAGTCCTCAACT
In the case of B37, the IC50 in series [2] amounted to 96 fold molar excess; in series [1], 62.4 fold molar excess.
